B1: NRCoV2-MRed18 VHH (VHH)
VHH: EVQLVESGGGLVQPGGSLRLSCAASTTVFGRNAMGWYRQAPGKERELVATVSDGGTPNYADSVKGRFTISRDNAKNTIYLQMNSLEPEDTAVYYCNYYNYYYGRNFWGQGTQVTVSS
B2: NRCoV2-MRed25 VHH (VHH)
VHH: EVQLVESGGGLVQAGGSLRLSCAASGHTFSRYGMGWFRQAPGKEREFVAAISWRGDSTYYRDSVNGRFTISRDNAKNTVYLGMNSLKPEDTAVYYCAAEMWGTATIVASRYTYWGQGTQVTVSS
B3: NRCoV2-MRed22 VHH (VHH)
VHH: EVQLVESGGGLVQPGGSLRLSCAASGSVFASNAMGWYRQAPGKQRELVATISSRGSTNYADSVKGRFTISRDNAKNTVYLQMNSLGPEDTAVYYCNAREFTGFDYWGQGTQVTVSS
B4: NRCoV2-MRed20 VHH (VHH)
VHH: EVQLVESGGGSVQAGGSLRLSCAASGLSFSSYDMGWFRQAPGKEREFVAAIRESGSGTYYADSVKGRFTISRDNAKNTVYLQVSSLKPEDTAVYTCAAKPPFYGSGTYSTPRAYLYWGQGTQVTVSS
B5: NRCoV2-MRed19 VHH (VHH)
VHH: EVQLVESGGGLVQPGGSLRLSCAASTIIFKGQTMGWFRQAPGNERELVATMTTSGSANYADSVKGRFTISRDNEKTVTLQMNSLKPEDTALYYCYMHSVYYGIDYWGKGTQVTVSS
B6: NRCoV2-MRed11 VHH (VHH)
VHH: EVQLVESGGGLVQAGGSLRLSCAASGFTFSSYAMSWHRQAPGKGLEWVSAINSGGGSTSYADSVKGRFAISRDNAKNTLYLQMNSLKPEDTAVYYCATTISDGSSWSTKSYRGQGTQVTVSS
B7: NRCoV2-MRed07 VHH-Fc (Fc fusion)
chain: EVQLVESGGGLVQPGGSLTLSCAASGSIGPFNTMGWYRQAPGNQREPAAIITRGGVTNYADSVKGRFTISRDNAKNAVYLQMDSLKPDDTAVYYCYANYGWAIPYWGNGTQVTVSS
notes: bivalent VHH-Fc
B8: NRCoV2-14 VHH-Fc (Fc fusion)
chain: EVQLVSSGGGLVQAGGSLRLSCEASGTTFSHYAVGWYRQAPGKQREWVASISVFGSTTYGGSVAGRFTISRDNDKNTVDLQMNSLKPEDTAVYYCHAVNADIGGDYWGQGTQVTVSS
notes: bivalent VHH-Fc
B9: NRCoV2-SR16 VHH-Fc (Fc fusion)
chain: QVQLVQSAGGLVQAGGSLRLSCVVSGTTFSRYHMGWHRQAPGKQRDFVAGISTSGAVTYADSAKGRFTISRDNAKNTVYLEMNSLKLEDTALYYCNTGGWDYRSSTFIMGLNWGQGTQVTVSS
notes: bivalent VHH-Fc
B10: NRCoV2-MRed03 VHH-Fc (Fc fusion)
chain: EVQLVESGGGLVQPGGSLRLSCAAIGFTLDYYAIGWFRQAPGKEREGVSCISSSDGSTYYADSVKGRFTISRDNAKNTVYLQMNSLKPEDTAVYYCATDAFATCDSWYAQIAQYDFRGQGTQVTVSS
notes: bivalent VHH-Fc
B11: NRCoV2-05 VHH-Fc (Fc fusion)
chain: EVKLVQSGGGLVQPGGSLRLSCAASGFIFSNYAMNWVRQAPGKGLEWVSGINSGGGDTRYADSVKGRFTVSRDNAKNTLYLQMNSLKPEDTGVYYCSKGPVSSYYGSGYDYRGQGTQVTVSS
notes: bivalent VHH-Fc
B12: NRCoV2-02 VHH-Fc (Fc fusion)
chain: EVQLVESGGGLVQAGGSLRLSCAASGFTFSNYAMNWVRQAPGKGLEWVSGISGRGDDTRYADSVKGRFTISRDNAKNTLFLQMRSLRPEDTGVYRCTKGPDLYYFGSGYSDRGQGTQVTVSS
notes: bivalent VHH-Fc
B13: NRCoV2-MRed06 VHH-Fc (Fc fusion)
chain: EVQLVESGGGLVQAGGSLRLSCAASGFTLAYYAIGWFRQAPGKEREGVSCISSSDGSAHYADSVKGRFTISRDNAKNTVSLQMNSLKPEDTAVYYCATDSFSSCSDYESGMDFWGKGTQVTVSS
notes: bivalent VHH-Fc
B14: NRCoV2-06 VHH-Fc (Fc fusion)
chain: EVQLVQSGGGLVQAGESLRLSCAASVSTFSSYAMGWYRQAPGKQRELVASIGFVGATYYIDSVKGRFTISRDNAKKTAYLQMNDLKPDDTAVYYCNARHYGGSEYWGQGTQVTVSS
notes: bivalent VHH-Fc
B15: NRCoV2-04 VHH-Fc (Fc fusion)
chain: AVQLVDSGGGLVQPGGSLRLSCAASGSPFSNVVMAWYRQAPGKQRERVAFISGGGIADYIMSVKGRFTISRDNAKNTVYLQMNSLKPEDTAVYYCWSSYESTWGQGTQVTVSS
notes: bivalent VHH-Fc
B16: NRCoV2-10 VHH-Fc (Fc fusion)
chain: QLQLQESGGGLVQPGGSLTLSCAASGNTFSRSNMHWYRQAPGAQREWVAAISSRGISTYAYSAKGRFTISRDNAKNTVSLQMNSLKPEDTAVYYCYAADDLGDYWGQGTQVTVSS
notes: bivalent VHH-Fc

What follows are binders tested against T1, SARS-CoV-2 S1 (aa16-685) (Wuhan) (SARS-CoV-2 Wuhan, UniProt P0DTC2 16-685) (assay: SPR, antigen on chip).
T1 construct: NRC; FLAG, 6xHis tags

| Binder | binding result |
| --- | --- |
| B1 | no binding |
| B2 | no binding |
| B3 | no binding |
| B4 | no binding |
| B5 | no binding |
| B6 | no binding |

These binders were tested against T2, SARS-CoV-2 spike trimer S (Wuhan, SmT1) (SARS-CoV-2 Wuhan) (assay: SPR, antigen on chip).
T2 construct: extracellular domain

| Binder | Kd | koff | kon |
| --- | --- | --- | --- |
| B1 | 7.56 nM | 0.00153 s⁻¹ | 202000 M⁻¹ s⁻¹ |
| B2 | 1.02 nM | 0.000115 s⁻¹ | 112000 M⁻¹ s⁻¹ |
| B3 | 0.506 nM | 0.000176 s⁻¹ | 347000 M⁻¹ s⁻¹ |
| B4 | 0.0918 nM | 1.46e-05 s⁻¹ | 160000 M⁻¹ s⁻¹ |
| B5 | 5.01 nM | 0.000799 s⁻¹ | 159000 M⁻¹ s⁻¹ |
| B6 | 17.8 nM | 0.000418 s⁻¹ | 23400 M⁻¹ s⁻¹ |

These binders were tested against T3, SARS-CoV-2 S2 (aa686-1208) (Wuhan) (SARS-CoV-2 Wuhan, UniProt P0DTC2 686-1208) (assay: SPR, antigen on chip).
T3 construct: NRC; FLAG, 6xHis tags

| Binder | Kd | koff | kon |
| --- | --- | --- | --- |
| B1 | 6.8 nM | 0.00103 s⁻¹ | 152000 M⁻¹ s⁻¹ |
| B2 | 1.56 nM | 0.00019 s⁻¹ | 122000 M⁻¹ s⁻¹ |
| B3 | 1.05 nM | 0.000284 s⁻¹ | 270000 M⁻¹ s⁻¹ |
| B4 | 0.299 nM | 3.38e-05 s⁻¹ | 113000 M⁻¹ s⁻¹ |
| B5 | 8.2 nM | 0.00084 s⁻¹ | 102000 M⁻¹ s⁻¹ |
| B6 | 5.21 nM | 0.000213 s⁻¹ | 40900 M⁻¹ s⁻¹ |

Each binder was assayed against T4, SARS-CoV-2 S on CHO-S cells (SARS-CoV-2, UniProt P0DTC2 14-1273) (assay: flow cytometry, CHO-S cells).
T4 construct: whole, on cells

| Binder | Bmax | EC50 |
| --- | --- | --- |
| B7 | 8670 | 132 nM |
| B8 | 18800 | 0.9 nM |
| B9 | 11600 | 1.4 nM |
| B10 | 12000 | 15.1 nM |
| B11 | 17400 | 0.5 nM |
| B12 | 18600 | 0.3 nM |
| B13 | 9020 | 8.5 nM |
| B14 | 13600 | 8.1 nM |
| B15 | 15500 | 1.3 nM |
| B16 | 28000 | 1.3 nM |

What follows are binders tested against SARS-CoV spike (S) (SARS-CoV, UniProt P59594 14-1195) (assay: ELISA).

| Binder | binding result |
| --- | --- |
| B7 | no binding (tested: 13 nM) |
| B8 | no binding (tested: 13 nM) |
| B9 | no binding (tested: 13 nM) |
| B10 | no binding (tested: 13 nM) |
| B11 | no binding (tested: 13 nM) |
| B12 | no binding (tested: 13 nM) |
| B13 | no binding (tested: 13 nM) |
| B14 | no binding (tested: 13 nM) |
| B15 | no binding (tested: 13 nM) |
| B16 | no binding (tested: 13 nM) |

Each binder was assayed against T3, SARS-CoV-2 S2 (aa686-1208) (Wuhan) (assay: ELISA).

| Binder | binding result |
| --- | --- |
| B7 | no binding (tested: 13 nM) |
| B8 | no binding (tested: 13 nM) |
| B9 | no binding (tested: 13 nM) |
| B10 | no binding (tested: 13 nM) |
| B11 | no binding (tested: 13 nM) |
| B12 | no binding (tested: 13 nM) |
| B13 | no binding (tested: 13 nM) |
| B14 | no binding (tested: 13 nM) |
| B15 | no binding (tested: 13 nM) |
| B16 | no binding (tested: 13 nM) |

The binders below were run against SARS-CoV-2 S1-NTD (aa16-305) (SARS-CoV-2 Wuhan, UniProt P0DTC2 16-305) (assay: ELISA).

| Binder | binding result |
| --- | --- |
| B8 | no binding (tested: 13 nM) |
| B11 | no binding (tested: 13 nM) |
| B12 | no binding (tested: 13 nM) |
| B14 | no binding (tested: 13 nM) |
| B15 | no binding (tested: 13 nM) |
| B16 | no binding (tested: 13 nM) |
